Experimental data published in patent US20190112340A1 (US Dept. of Health and Human Services, published 2019).

Assays:
sc8 DS-Cav1 = assay: BLI (Octet), F on Ni-NTA tips, Fab in solution
sc11 DS-Cav1 = sc11 DS-Cav1 (Engineered disulfide 155C-290C. Engineered cysteines 512C/513C. Glycoprotein; one protomer is given.); assay: BLI (Octet), F on Ni-NTA tips, Fab in solution
sc9-19 DS-Cav1 [1] = target: T1, sc9-19 DS-Cav1 (Engineered disulfide 155C-290C. Glycoprotein; it assembles as a trimer and one protomer is given.); assay: BLI (Octet), F on Ni-NTA tips, Fab in solution
sc9-24 DS-Cav1 [2] = assay: BLI (Octet), F on Ni-NTA tips, Fab in solution
sc9 DS-Cav1-105Q = sc9 DS-Cav1-105Q (Engineered disulfide 155C-290C. Glycoprotein; it assembles as a trimer and one protomer is given.); assay: BLI (Octet), F on Ni-NTA tips, Fab in solution
RSV F sc9-10 DS-Cav1 [3] = target: T2, RSV F sc9-10 DS-Cav1 (human RSV subtype A (strain A2)); assay: BLI (Octet), F on Ni-NTA tips, Fab in solution
RSV F sc9-9 DS-Cav1 = RSV F sc9-9 DS-Cav1 (human RSV subtype A (strain A2), UniProt P03420 26-96; P03420 145-513); assay: BLI (Octet), F on Ni-NTA tips, Fab in solution
[4] = target: sc9-10 DS-Cav1 Q98C, Q361C L95M-I221M-R429K (B18537); assay: BLI (Octet), F on Ni-NTA tips, Fab in solution
[5] = target: sc9-10 DS-Cav1 Q98C, Q361C S46G-E92D-L95M-S215P-I217P-I221M-R429K-K465Q (Long (VR26)); assay: BLI (Octet), F on Ni-NTA tips, Fab in solution
sc9-19 DS-Cav1 [6] = target: T1, sc9-19 DS-Cav1; assay: BLI (Octet), D25 Fab binding after/before stress
sc9-24 DS-Cav1 [7] = assay: BLI (Octet), D25 Fab binding after/before stress
RSV F sc9-10 DS-Cav1 [8] = target: T2, RSV F sc9-10 DS-Cav1; assay: BLI (Octet), D25 Fab binding after/before stress
[9] = target: T3, bRSV F ATue51908 sc9-10 DS-Cav1 A149C Y458C (bovine RSV, strain ATue51908 …); assay: Fab binding to purified bRSV F trimer (Octet BLI as in Example 1)
bRSV F RB94 DS-Cav1 [10] = target: T4, bRSV F RB94 DS-Cav1 (bovine RSV, strain RB94, UniProt P23728 26-109; P23728 137-513); assay: as above
[11] = target: T5, bRSV F 391-2 sc9 DS-Cav1 Q98C Q361C (bovine RSV, strain 391-2, UniProt P22167 26-513); assay: as above
[12] = target: T6, bRSV F strain 391-2 sc9-10, DS-Cav1, Q98C-Q361C (bovine RSV, strain 391-2); assay: as above
bRSV F 391-2 DS-Cav1 [13] = target: T7, bRSV F 391-2 DS-Cav1 (bovine RSV, strain 391-2, UniProt P22167 26-574); assay: as above
bRSV F ATue51908 DS-Cav1 [14] = target: T8, bRSV F ATue51908 DS-Cav1 (bovine RSV, strain ATue51908, UniProt P22167 26-109; P22167 137-513); assay: as above
[15] = target: T3, bRSV F ATue51908 sc9-10 DS-Cav1 A149C …; assay: D25 binding to stressed pre-F trimer as a fraction of the untreated protein (physical stability)
bRSV F RB94 DS-Cav1 [16] = target: T4, bRSV F RB94 DS-Cav1; assay: as above
[17] = target: T5, bRSV F 391-2 sc9 DS-Cav1 Q98C Q361C; assay: as above
[18] = target: T6, bRSV F strain 391-2 sc9-10, DS-Cav1, …; assay: as above
bRSV F 391-2 DS-Cav1 [19] = target: T7, bRSV F 391-2 DS-Cav1; assay: as above
bRSV F ATue51908 DS-Cav1 [20] = target: T8, bRSV F ATue51908 DS-Cav1; assay: as above

B1: D25 Fab (Fab, V domains shown)
VH: QVQLVQSGAEVKKPGSSVMVSCQASGGPLRNYIINWLRQAPGQGPEWMGGIIPVLGTVHYAPKFQGRVTITADESTDTAYIHLISLRSEDTAMYYCATETALVVSTTYLPHYFDNWGQGTLVTVSS
VL: DIQMTQSPSSLSAAVGDRVTITCQASQDIVNYLNWYQQKPGKAPKLLIYVASNLETGVPSRFSGSGSGTDFSLTISSLQPEDVATYYCQQYDNLPLTFGGGTKVEIKR
Kd (sc8 DS-Cav1): 7400 pM
Kd (sc11 DS-Cav1): 700 pM
Kd (sc9-19 DS-Cav1 [1]): 800 pM
Kd (sc9-24 DS-Cav1 [2]): 800 pM
Kd (sc9 DS-Cav1-105Q): 700 pM
Kd (RSV F sc9-10 DS-Cav1 [3]): 800 pM
Kd (RSV F sc9-9 DS-Cav1): 200 pM
Kd [4]: 100 pM
Kd [5]: 100 pM
fractional D25 reactivity, 50 °C (sc9-19 DS-Cav1 [6]): 0.9
fractional D25 reactivity, 70 °C (sc9-19 DS-Cav1 [6]): 0.9
fractional D25 reactivity, freeze-thaw (sc9-19 DS-Cav1 [6]): 0.04
fractional D25 reactivity, osmolality 10 mM (sc9-19 DS-Cav1 [6]): 0.6
fractional D25 reactivity, osmolality 3000 mM (sc9-19 DS-Cav1 [6]): 0.5
fractional D25 reactivity, pH 3.5 (sc9-19 DS-Cav1 [6]): 0.7
fractional D25 reactivity, pH 10.0 (sc9-19 DS-Cav1 [6]): 0.8
fractional D25 reactivity, 50 °C (sc9-24 DS-Cav1 [7]): 0.9
fractional D25 reactivity, 70 °C (sc9-24 DS-Cav1 [7]): 0.9
fractional D25 reactivity, freeze-thaw (sc9-24 DS-Cav1 [7]): 0
fractional D25 reactivity, osmolality 10 mM (sc9-24 DS-Cav1 [7]): 0.5
fractional D25 reactivity, osmolality 3000 mM (sc9-24 DS-Cav1 [7]): 0.5
fractional D25 reactivity, pH 3.5 (sc9-24 DS-Cav1 [7]): 0.7
fractional D25 reactivity, pH 10.0 (sc9-24 DS-Cav1 [7]): 0.7
fractional D25 reactivity, 50 °C (RSV F sc9-10 DS-Cav1 [8]): 0.9
fractional D25 reactivity, 70 °C (RSV F sc9-10 DS-Cav1 [8]): 0.9
fractional D25 reactivity, freeze-thaw (RSV F sc9-10 DS-Cav1 [8]): 0.2
fractional D25 reactivity, osmolality 10 mM (RSV F sc9-10 DS-Cav1 [8]): 1.4
fractional D25 reactivity, osmolality 3000 mM (RSV F sc9-10 DS-Cav1 [8]): 0.7
fractional D25 reactivity, pH 3.5 (RSV F sc9-10 DS-Cav1 [8]): 1.5
fractional D25 reactivity, pH 10.0 (RSV F sc9-10 DS-Cav1 [8]): 0.7
Kd [9]: 420000 pM
Kd (bRSV F RB94 DS-Cav1 [10]): 24300 pM
Kd [11]: 24300 pM
Kd [12]: 57500 pM
Kd (bRSV F 391-2 DS-Cav1 [13]): 400 pM
Kd (bRSV F ATue51908 DS-Cav1 [14]): 10800 pM
fractional antibody reactivity after 10 cycles of freeze-thaw [15]: 1 fraction
fractional antibody reactivity after 50 °C [15]: 0.9 fraction
fractional antibody reactivity after 70 °C [15]: 0.9 fraction
fractional antibody reactivity after osmolarity 10 mM [15]: 0.7 fraction
fractional antibody reactivity after osmolarity 3000 mM [15]: 0.8 fraction
fractional antibody reactivity after pH 3.5 [15]: 1 fraction
fractional antibody reactivity after pH 10.0 [15]: 0.9 fraction
fractional antibody reactivity after 10 cycles of freeze-thaw (bRSV F RB94 DS-Cav1 [16]): 1 fraction
fractional antibody reactivity after 50 °C (bRSV F RB94 DS-Cav1 [16]): 0.6 fraction
fractional antibody reactivity after 70 °C (bRSV F RB94 DS-Cav1 [16]): 0.1 fraction
fractional antibody reactivity after osmolarity 10 mM (bRSV F RB94 DS-Cav1 [16]): 0.8 fraction
fractional antibody reactivity after osmolarity 3000 mM (bRSV F RB94 DS-Cav1 [16]): 0.5 fraction
fractional antibody reactivity after pH 3.5 (bRSV F RB94 DS-Cav1 [16]): 1.2 fraction
fractional antibody reactivity after pH 10.0 (bRSV F RB94 DS-Cav1 [16]): 1.3 fraction
fractional antibody reactivity after 10 cycles of freeze-thaw [17]: 1 fraction
fractional antibody reactivity after 50 °C [17]: 0.9 fraction
fractional antibody reactivity after 70 °C [17]: 0.8 fraction
fractional antibody reactivity after osmolarity 10 mM [17]: 1 fraction
fractional antibody reactivity after osmolarity 3000 mM [17]: 0.9 fraction
fractional antibody reactivity after pH 3.5 [17]: 1.2 fraction
fractional antibody reactivity after pH 10.0 [17]: 1 fraction
fractional antibody reactivity after 10 cycles of freeze-thaw [18]: 1 fraction
fractional antibody reactivity after 50 °C [18]: 1 fraction
fractional antibody reactivity after 70 °C [18]: 1 fraction
fractional antibody reactivity after osmolarity 10 mM [18]: 0.8 fraction
fractional antibody reactivity after osmolarity 3000 mM [18]: 0.8 fraction
fractional antibody reactivity after pH 3.5 [18]: 0.9 fraction
fractional antibody reactivity after pH 10.0 [18]: 0.9 fraction
fractional antibody reactivity after 10 cycles of freeze-thaw (bRSV F 391-2 DS-Cav1 [19]): 1 fraction
fractional antibody reactivity after 50 °C (bRSV F 391-2 DS-Cav1 [19]): 0.7 fraction
fractional antibody reactivity after 70 °C (bRSV F 391-2 DS-Cav1 [19]): 0.1 fraction
fractional antibody reactivity after osmolarity 10 mM (bRSV F 391-2 DS-Cav1 [19]): 0.9 fraction
fractional antibody reactivity after osmolarity 3000 mM (bRSV F 391-2 DS-Cav1 [19]): 0.6 fraction
fractional antibody reactivity after pH 3.5 (bRSV F 391-2 DS-Cav1 [19]): 0.9 fraction
fractional antibody reactivity after pH 10.0 (bRSV F 391-2 DS-Cav1 [19]): 1.2 fraction
fractional antibody reactivity after 10 cycles of freeze-thaw (bRSV F ATue51908 DS-Cav1 [20]): 1 fraction
fractional antibody reactivity after 50 °C (bRSV F ATue51908 DS-Cav1 [20]): 0.9 fraction
fractional antibody reactivity after 70 °C (bRSV F ATue51908 DS-Cav1 [20]): 0.1 fraction
fractional antibody reactivity after osmolarity 10 mM (bRSV F ATue51908 DS-Cav1 [20]): 0.7 fraction
fractional antibody reactivity after osmolarity 3000 mM (bRSV F ATue51908 DS-Cav1 [20]): 0.4 fraction
fractional antibody reactivity after pH 3.5 (bRSV F ATue51908 DS-Cav1 [20]): 0.9 fraction
